Measurements as given in the supplement of paper PMC9233669.
Variants at the floor of the assay were thinned out.

Tests used:
biotinyl-Phe-oxazolone = experiment: self-aminoacylation, catalytic enhancement (BFO) (fold over background); higher = more active; k-Seq, kA / k0A0; sequences stand for … in GGGAAUGGAUCCACAUCUACGAAUUC…UUCACUGCAGACUUGACGAAGCUG
Procedure, shortened: (§1)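 Each biotinyl-aminoacyl-oxazolone, at 2–1250 μM, was incubated with mutagenized RNA pools (0.43 μM) carrying a 21-nt variable region. The 50 μL reactions contained HEPES/NaCl/KCl/MgCl2/CaCl2 buffer with 5% acetonitrile at pH 6.9–7.0 and ran for 90 minutes at room temperature. After streptavidin capture, RNA was measured by qPCR in triplicate and by Illumina sequencing, and catalytic enhancement was calculated as median kA over the uncatalyzed rate from a pseudo-first-order fit of per-sequence fraction reacted.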

biotinyl-Ile-oxazolone = experiment: self-aminoacylation, catalytic enhancement (BIO) (fold over background); higher = more active; k-Seq, kA / k0A0; sequences stand for … in GGGAAUGGAUCCACAUCUACGAAUUC…UUCACUGCAGACUUGACGAAGCUG
Procedure, shortened: as §1

biotinyl-Met-oxazolone = experiment: self-aminoacylation, catalytic enhancement (BMO) (fold over background); higher = more active; k-Seq, kA / k0A0; sequences stand for … in GGGAAUGGAUCCACAUCUACGAAUUC…UUCACUGCAGACUUGACGAAGCUG
Procedure, shortened: as §1

biotinyl-Val-oxazolone = experiment: self-aminoacylation, catalytic enhancement (BVO) (fold over background); higher = more active; k-Seq, kA / k0A0; sequences stand for … in GGGAAUGGAUCCACAUCUACGAAUUC…UUCACUGCAGACUUGACGAAGCUG
Procedure, shortened: as §1

biotinyl-Leu-oxazolone = experiment: self-aminoacylation, catalytic enhancement (BLO) (fold over background); higher = more active; k-Seq, kA / k0A0; sequences stand for … in GGGAAUGGAUCCACAUCUACGAAUUC…UUCACUGCAGACUUGACGAAGCUG
Procedure, shortened: as §1

biotinyl-Trp-oxazolone = experiment: self-aminoacylation, catalytic enhancement (BWO) (fold over background); higher = more active; k-Seq, kA / k0A0; sequences stand for … in GGGAAUGGAUCCACAUCUACGAAUUC…UUCACUGCAGACUUGACGAAGCUG
Procedure, shortened: as §1

Row | Sequence | self-aminoacylation (biotinyl-Phe-oxazolone) | self-aminoacylation (biotinyl-Ile-oxazolone) | self-aminoacylation (biotinyl-Met-oxazolone) | self-aminoacylation (biotinyl-Val-oxazolone) | self-aminoacylation (biotinyl-Leu-oxazolone) | self-aminoacylation (biotinyl-Trp-oxazolone)
1 | CCACACUUCGAUCAAUCGGUC [Fam1B.1 aminoacylation ribozyme variant] | 0.966 | 0.826 | 0.767 | 0.871 | 0.777 | 0.903
2 | CCACACUUCGGGCAAUCGGUC [Fam1B.1 aminoacylation ribozyme variant] | 9.3 | 2.1 | 2.73 | 3.09 | 2.48 | 2.23
3 | CCACACUUCUAGCAAUCGAUC [Fam1B.1 aminoacylation ribozyme variant] | 0.626 | 0.556 | 0.447 | 0.716 | 0.457 | 0.432
4 | CCACACUUCUAUCAAUCGGUC [Fam1B.1 aminoacylation ribozyme variant] | 0.846 | 0.657 | 0.718 | 0.743 | 0.521 | 0.659
5 | CCACACUUCUGGCAAUCGGUC [Fam1B.1 aminoacylation ribozyme variant] | 1.18 | 1.23 | 1.26 | 1.49 | 1.54 | 0.873
6 | CCACACUUCUUGCAAUCGGUC [Fam1B.1 aminoacylation ribozyme variant] | 0.7 | 0.783 | 0.76 | 0.765 | 0.72 | 0.654
7 | CCACACUUGAAGCAACCGGUC [Fam1B.1 aminoacylation ribozyme variant] | 0.953 | 0.886 | 0.694 | 1.04 | 0.699 | 0.938
8 | CCACACUUGAAGCAAUAGGUC [Fam1B.1 aminoacylation ribozyme variant] | 0.578 | 0.563 | 0.509 | 0.513 | 0.471 | 0.438
9 | CCACACUUGAAGCAAUCGAUC [Fam1B.1 aminoacylation ribozyme variant] | 0.662 | 0.482 | 0.436 | 0.612 | 0.407 | 0.348
10 | CCACACUUGAAGCAAUCGGGC [Fam1B.1 aminoacylation ribozyme variant] | 5.71 | 1.55 | 1.34 | 2.63 | 1.57 | 2.26
11 | CCACACUUGAAGCAAUCGUUC [Fam1B.1 aminoacylation ribozyme variant] | 0.863 | 0.685 | 0.487 | 0.825 | 0.674 | 0.436
12 | CCACACUUGAAGCAAUUGGUC [Fam1B.1 aminoacylation ribozyme variant] | 0.359 | 0.643 | 0.63 | 0.587 | 0.539 | 0.386
13 | CCACACUUGAAGCGAUCGGUC [Fam1B.1 aminoacylation ribozyme variant] | 1.67 | 1.41 | 1.36 | 1.39 | 0.996 | 0.952
14 | CCACACUUGAAGGAAUCGGUC [Fam1B.1 aminoacylation ribozyme variant] | 1.23 | 1.28 | 1.39 | 1.39 | 1.55 | 1.71
15 | CCACACUUUAAGAAAUCGGUC [Fam1B.1 aminoacylation ribozyme variant] | 0.835 | 0.841 | 0.607 | 0.663 | 0.782 | 0.727
16 | CCACACUUUAAGCAAUCGCUC [Fam1B.1 aminoacylation ribozyme variant] | 0.598 | 0.99 | 1.1 | 1.08 | 0.897 | 1.2
17 | CCACACUUUAAGCAAUCGGAC [Fam1B.1 aminoacylation ribozyme variant] | 0.866 | 0.85 | 0.664 | 0.839 | 0.737 | 0.544
18 | CCACACUUUAAGCAAUCGGGC [Fam1B.1 aminoacylation ribozyme variant] | 1.22 | 1.61 | 1.63 | 1.34 | 1.65 | 1.01
19 | CCACACUUUAAGCAAUGGGUC [Fam1B.1 aminoacylation ribozyme variant] | 0.774 | 0.696 | 0.686 | 0.613 | 0.618 | 0.612
20 | CCACACUUUAAGCAUUCGGUC [Fam1B.1 aminoacylation ribozyme variant] | 1.05 | 1.39 | 1.01 | 1.3 | 1.21 | 1.36
21 | CCACACUUUCAGCAAUCGGUC [Fam1B.1 aminoacylation ribozyme variant] | 1.04 | 1.01 | 0.799 | 1.09 | 0.966 | 0.664
22 | CCACAGUUCAAGAAAUCGGUC [Fam1B.1 aminoacylation ribozyme variant] | 1.71 | 1.06 | 1.22 | 1.18 | 1.22 | 1.67
23 | CCACAGUUCAAGCAAUAGGUC [Fam1B.1 aminoacylation ribozyme variant] | 1.14 | 0.794 | 0.783 | 0.862 | 0.731 | 0.858
24 | CCACAGUUCAAGCAAUCAGUC [Fam1B.1 aminoacylation ribozyme variant] | 1.73 | 0.829 | 0.662 | 0.781 | 0.76 | 0.814
25 | CCACAGUUCAAGCAAUCGGUG [Fam1B.1 aminoacylation ribozyme variant] | 25.9 | 3.29 | 4.04 | 3.14 | 5.44 | 3.62
26 | CCACAGUUCAAGCCAUCGGUC [Fam1B.1 aminoacylation ribozyme variant] | 1.14 | 1.87 | 2.33 | 2.17 | 2.53 | 1.3

Row | Sequence | self-aminoacylation (biotinyl-Phe-oxazolone) | self-aminoacylation (biotinyl-Ile-oxazolone) | self-aminoacylation (biotinyl-Met-oxazolone) | self-aminoacylation (biotinyl-Val-oxazolone) | self-aminoacylation (biotinyl-Leu-oxazolone) | self-aminoacylation (biotinyl-Trp-oxazolone)
27 | CCACAGUUCAAUCAAUCGGUC [Fam1B.1 aminoacylation ribozyme variant] | 2.95 | 0.806 | 0.905 | 0.96 | 0.881 | 2.08
28 | CCACAUUUCAAACAAUCGGUC [Fam1B.1 aminoacylation ribozyme variant] | 17.8 | 1.41 | 1.33 | 1.28 | 1.31 | 9.95
29 | CCACAUUUCAAGCAAUCAGUC [Fam1B.1 aminoacylation ribozyme variant] | 1.71 | 1 | 0.755 | 1.1 | 0.906 | 0.884
30 | CCACAUUUCAAGCAAUCGCUC [Fam1B.1 aminoacylation ribozyme variant] | 2.39 | 2.6 | 2 | 2.42 | 2.17 | 2.38
31 | CCACAUUUCAAGCACUCGGUC [Fam1B.1 aminoacylation ribozyme variant] | 0.933 | 1.25 | 1.15 | 1.37 | 1.16 | 0.97
32 | CCACAUUUCAAGCAUUCGGUC [Fam1B.1 aminoacylation ribozyme variant] | 1.3 | 1.92 | 1.65 | 1.96 | 1.64 | 1.56
33 | CCACAUUUCAAGGAAUCGGUC [Fam1B.1 aminoacylation ribozyme variant] | 1.67 | 1.52 | 1.34 | 1.31 | 1.49 | 1.28
34 | CCACCCUUCAACCAAUCGGUC [Fam1B.1 aminoacylation ribozyme variant] | 46 | 1.19 | 1.35 | 1.47 | 1.44 | 26.2
35 | CCACCGUUCAAGCAAUCGGUC [Fam1B.1 aminoacylation ribozyme variant] | 1.27 | 1 | 0.827 | 1.41 | 0.983 | 1.11
36 | CCACGCUACAAGCAAUCGGUC [Fam1B.1 aminoacylation ribozyme variant] | 1.3 | 0.937 | 0.858 | 0.999 | 0.851 | 1.2
37 | CCACGCUCCAAGCAAUCGGUC [Fam1B.1 aminoacylation ribozyme variant] | 12.6 | 1.13 | 1.07 | 1.47 | 1.11 | 9.91
38 | CCACGCUUAAAGCAAUCGGUC [Fam1B.1 aminoacylation ribozyme variant] | 0.884 | 0.96 | 0.741 | 1.02 | 0.752 | 0.646
39 | CCACGCUUCAAGAAAUCGGUC [Fam1B.1 aminoacylation ribozyme variant] | 10.3 | 0.895 | 0.772 | 0.945 | 1.19 | 8.12
40 | CCACGCUUCAAGCAAUCCGUC [Fam1B.1 aminoacylation ribozyme variant] | 1.34 | 0.754 | 0.507 | 1.1 | 0.648 | 1.07
41 | CCACGCUUCAAGCAAUCGGUU [Fam1B.1 aminoacylation ribozyme variant] | 20 | 1.33 | 1.44 | 1.93 | 1.92 | 16.7
42 | CCACGCUUCAAGCAGUCGGUC [Fam1B.1 aminoacylation ribozyme variant] | 1 | 0.755 | 1.03 | 1.33 | 0.887 | 0.91
43 | CCACGCUUCAAGCGAUCGGUC [Fam1B.1 aminoacylation ribozyme variant] | 2.6 | 0.888 | 1.14 | 1.2 | 1.05 | 3.3
44 | CCACGCUUCAGGCAAUCGGUC [Fam1B.1 aminoacylation ribozyme variant] | 1.41 | 1.22 | 1.35 | 1.77 | 1.39 | 1.35
45 | CCACGCUUUAAGCAAUCGGUC [Fam1B.1 aminoacylation ribozyme variant] | 1.27 | 0.737 | 0.713 | 0.787 | 0.682 | 0.998
46 | CCACUCCAAACAAUCGGUCUG [Fam1A.1 aminoacylation ribozyme variant] | 4.18 | 1.11 | 1.13 | 1.22 | 1.09 | 3.48
47 | CCACUCGUCAAGCAAUCGGUC [Fam1B.1 aminoacylation ribozyme variant] | 0.586 | 1.15 | 1.18 | 1.58 | 1.35 | 0.864
48 | CCACUCUGCAAGCAAUCGGUC [Fam1B.1 aminoacylation ribozyme variant] | 1.11 | 1.24 | 1.06 | 1.41 | 1 | 1.09
49 | CCACUCUUCAAACAAUCGGUC [Fam1B.1 aminoacylation ribozyme variant] | 78.3 | 1.23 | 1.44 | 1.3 | 2.04 | 41.8
50 | CCACUCUUCAAGAAAUCGGUC [Fam1B.1 aminoacylation ribozyme variant] | 5.4 | 0.932 | 0.91 | 0.871 | 0.903 | 4.87
51 | CCACUCUUCAAGCAAUAGGUC [Fam1B.1 aminoacylation ribozyme variant] | 0.921 | 0.784 | 0.558 | 0.668 | 0.669 | 0.484
